From FireProtDB (doi:10.1021/bi991296s)
Several values for one entry are separate records, joined by “and”; a condition that tells them apart may be missing. Identical values can stand only once.

Settings: Escherichia coli (strain K12), pH 7.8, 25 °C, Urea, transition: 4, whole UniProt chain shown
[1] = SAXS, Potassium phosphate 10 mM
[2] = SEC, Potassium phosphate 100 mM

B1: Tryptophan synthase alpha chain wild type, P0A877 (protein)
chain: MERYESLFAQLKERKEGAFVPFVTLGDPGIEQSLKIIDTLIEAGADALELGIPFSDPLADGPTIQNATLRAFAAGVTPAQCFEMLALIRQKHPTIPIGLLMYANLVFNKGIDEFYAQCEKVGVDSVLVADVPVEESAPFRQAALRHNVAPIFICPPNADDDLLRQIASYGRGYTYLLSRAGVTGAENRAALPLNHLVAKLKEYNAAPPLQGFGISAPDQVKAAIDAGAAGAISGSAIVKIIEQHINEPEKMLAALKVFVQPMKAATRS
CD, Potassium phosphate 10 mM
  denaturant m value: 2.2 kcal/mol/M and 1.1 kcal/mol/M and 0.84 kcal/mol/M
  unfolding free energy: 6 kcal/mol and 4.5 kcal/mol and 4.9 kcal/mol
[1]
  denaturant m value: 2 kcal/mol/M and 0.9 kcal/mol/M
  unfolding free energy: 5.3 kcal/mol and 3.1 kcal/mol
[2]
  denaturant m value: 2 kcal/mol/M and 1.2 kcal/mol/M
  unfolding free energy: 5.7 kcal/mol and 4.9 kcal/mol
